Data taken from PMC5740162, “Cryo-EM structure of a licensed DNA replication origin” (Nature Communications, 2017).

Experiments:
[1] = biological target: T1, Mcm4 (budding yeast, UniProt P30665 1-933); assay: cryo-EM structure; MCM loaded on bead-immobilised biotinylated 2.8 kb ARS1 DNA with ORC, Cdc6, ATP; with or without DDK; high-salt wash (0.3 M KCl); DNA released by MseI in EM buffer (25 mM Hepes 7.6, 5 mM Mg-acetate, 250 mM K-glutamate); lacey carbon grids, Titan Krios/K2; conditions: both partners purified
T1 construct: Mcm4, subunit of the yeast Mcm2-7 helicase; Subunit as it stands in the loaded, unmodified MCM double hexamer
T1 sequence: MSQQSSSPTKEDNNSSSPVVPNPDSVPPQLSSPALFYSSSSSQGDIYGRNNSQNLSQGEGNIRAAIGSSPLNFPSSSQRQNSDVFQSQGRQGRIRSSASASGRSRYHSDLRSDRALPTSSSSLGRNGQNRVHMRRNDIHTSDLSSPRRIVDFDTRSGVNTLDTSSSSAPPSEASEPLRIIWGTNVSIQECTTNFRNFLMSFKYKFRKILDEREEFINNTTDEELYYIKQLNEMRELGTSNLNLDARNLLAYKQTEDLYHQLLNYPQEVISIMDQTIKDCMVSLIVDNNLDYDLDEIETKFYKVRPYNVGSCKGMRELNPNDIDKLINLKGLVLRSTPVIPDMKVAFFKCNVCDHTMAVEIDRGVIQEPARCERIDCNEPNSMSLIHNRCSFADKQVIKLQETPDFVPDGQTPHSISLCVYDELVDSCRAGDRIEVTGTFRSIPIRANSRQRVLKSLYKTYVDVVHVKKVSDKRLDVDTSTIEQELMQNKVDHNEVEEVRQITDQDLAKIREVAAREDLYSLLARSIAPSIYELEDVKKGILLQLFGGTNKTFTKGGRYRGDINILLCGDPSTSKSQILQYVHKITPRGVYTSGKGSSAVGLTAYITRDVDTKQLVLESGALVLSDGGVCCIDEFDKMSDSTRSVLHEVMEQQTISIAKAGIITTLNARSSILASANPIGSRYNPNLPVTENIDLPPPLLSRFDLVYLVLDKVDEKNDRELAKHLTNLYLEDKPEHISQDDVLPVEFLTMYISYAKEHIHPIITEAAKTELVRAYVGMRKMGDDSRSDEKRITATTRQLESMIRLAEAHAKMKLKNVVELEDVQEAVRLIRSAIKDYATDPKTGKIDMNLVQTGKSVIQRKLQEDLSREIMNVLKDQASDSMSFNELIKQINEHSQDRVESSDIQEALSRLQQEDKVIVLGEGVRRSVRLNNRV

[2] = biological target: T2, Mcm3 (budding yeast, UniProt P24279 1-971); assay: as above; conditions: both partners purified
T2 construct: Mcm3, subunit of the yeast Mcm2-7 helicase; Subunit as it stands in the loaded, unmodified MCM double hexamer; The complex was purified on calmodulin resin
T2 sequence (P24279 whole entry): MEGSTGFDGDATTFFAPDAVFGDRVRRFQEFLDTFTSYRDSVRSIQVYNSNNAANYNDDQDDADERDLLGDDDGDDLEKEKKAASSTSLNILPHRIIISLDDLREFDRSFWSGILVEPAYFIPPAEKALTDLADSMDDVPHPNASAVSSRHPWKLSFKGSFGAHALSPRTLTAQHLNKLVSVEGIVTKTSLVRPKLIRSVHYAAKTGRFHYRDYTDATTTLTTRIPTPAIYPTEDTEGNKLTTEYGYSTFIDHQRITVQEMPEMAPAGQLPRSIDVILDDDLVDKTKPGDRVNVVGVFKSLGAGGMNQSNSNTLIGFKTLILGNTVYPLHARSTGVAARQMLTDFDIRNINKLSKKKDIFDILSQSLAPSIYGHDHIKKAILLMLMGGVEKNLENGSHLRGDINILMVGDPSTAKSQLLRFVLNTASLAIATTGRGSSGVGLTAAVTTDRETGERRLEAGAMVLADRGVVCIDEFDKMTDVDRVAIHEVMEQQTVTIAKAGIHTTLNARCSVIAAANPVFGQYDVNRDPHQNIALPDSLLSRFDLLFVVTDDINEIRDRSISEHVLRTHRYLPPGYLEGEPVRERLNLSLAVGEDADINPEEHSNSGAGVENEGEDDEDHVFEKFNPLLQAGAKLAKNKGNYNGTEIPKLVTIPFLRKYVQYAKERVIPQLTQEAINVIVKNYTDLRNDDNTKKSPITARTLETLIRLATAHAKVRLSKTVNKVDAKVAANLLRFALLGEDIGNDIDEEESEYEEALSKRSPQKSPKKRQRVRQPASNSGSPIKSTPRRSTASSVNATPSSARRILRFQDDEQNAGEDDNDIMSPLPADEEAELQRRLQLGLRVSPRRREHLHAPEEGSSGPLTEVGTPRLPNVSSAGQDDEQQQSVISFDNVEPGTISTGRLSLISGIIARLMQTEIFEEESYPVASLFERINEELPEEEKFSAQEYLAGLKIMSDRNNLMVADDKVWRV

B1: Mcm7 (natural protein, budding yeast)
chain: MSAALPSIQLPVDYNNLFNEITDFLVTFKQDTLSSDATRNENEDENLDAENIEQHLLEKGPKYMAMLQKVANRELNSVIIDLDDILQYQNEKFLQGTQADDLVSAIQQNANHFTELFCRAIDNNMPLPTKEIDYKDDVLDVILNQRRLRNERMLSDRTNEIRSENLMDTTMDPPSSMNDALREVVEDETELFPPNLTRRYFLYFKPLSQNCARRYRKKAISSKPLSVRQIKGDFLGQLITVRGIITRVSDVKPAVEVIAYTCDQCGYEVFQEVNSRTFTPLSECTSEECSQNQTKGQLFMSTRASKFSAFQECKIQELSQQVPVGHIPRSLNIHVNGTLVRSLSPGDIVDVTGIFLPAPYTGFKALKAGLLTETYLEAQFVRQHKKKFASFSLTSDVEERVMELITSGDVYNRLAKSIAPEIYGNLDVKKALLLLLVGGVDKRVGDGMKIRGDINVCLMGDPGVAKSQLLKAICKISPRGVYTTGKGSSGVGLTAAVMKDPVTDEMILEGGALVLADNGICCIDEFDKMDESDRTAIHEVMEQQTISISKAGINTTLNARTSILAAANPLYGRYNPRLSPLDNINLPAALLSRFDILFLMLDIPSRDDDEKLAEHVTYVHMHNKQPDLDFTPVEPSKMREYIAYAKTKRPVMSEAVNDYVVQAYIRLRQDSKREMDSKFSFGQATPRTLLGIIRLSQALAKLRLADMVDIDDVEEALRLVRVSKESLYQETNKSKEDESPTTKIFTIIKKMLQETGKNTLSYENIVKTVRLRGFTMLQLSNCIQEYSYLNVWHLINEGNTLKFVDDGTMDTDQEDSLVSTPKLAPQTTASANVSAQDSDIDLQDA
notes: Mcm7, subunit of the yeast Mcm2-7 helicase; Subunit as it stands in the loaded, unmodified MCM double hexamer
B1: binds [1]; binds [2].
